Here are results for 4 molecules from patent US20250122266A1, “SMART SINGLE-DOMAIN INTRABODIES WITH PRECISION SWITCHES FOR BIOMEDICAL APPLICATIONS” (THE TEXAS A&M UNIVERSITY SYSTEM, priority 2020, published 2025).

Assay [1] relates to SH2 domain of Abl (NE-SH2). As to the kind of experiment: nuclear envelope (NE) translocation assay of moonbody variants. It counts as cell-based. As to the method:
(§1) To monitor light-induced F-body: antigen association or dissociation, HeLa cells seeded on glass-bottom dishes were co-transfected with the indicated plasmids shown in the figures. Confocal images were acquired 24-48 hours after transfection. The cells were imaged every 4 sec for 2 nmin unless otherwise noted. The 488-nm laser source to excite GFP was also used for photostimulation (with 1-5% output). To quantify fluorescent signals at selected areas, we used the region-of-interest (ROI) toolbox in Nikon NIS-Elements software to define the nuclear envelope (NE) or nucleoplasm (NP) regions. The “Time Measurement” tool was used to determine the mCherry intensities for moonbody variants and GFP intensities for sunbody variants. The fluorescence intensity ratio (FNE/FNP) was used as readout, with the changes in the ratio plotted as F/F0 or ΔF/F0. For spatially-restricted photostimulation, the FRAP module in the Nikon imaging system was used, with the 488-nm laser power output set at 0.2%-5%.
The instant example provides a light-controllable monobody by inserting the LOV2 photoswitch into a fibronectin type III domain (FN3) scaffold that specifically recognizes the Src Homology 2 (SH2) domain of Abelson tyrosine kinase (Abl). […]

The next assay deals with SH2-mEmerald. The assay can be described thus: moonbody regulated protein degradation. As to conditions: moonbody fused with AFB2, escalating doses of pulsed light. It counts as cell-based. The protocol: The plasmid encoding the moonbody fused with the F-box protein atAFB2 was co-transfected with SH2-mEmerald into HeLa cells. Cells were treated with or without a customized blue light source (470 nm, 40 μW/mm2) after 16 h transfection. Light stimulation was applied for 10% (1 min ON, 9 min OFF), 30% (3 min ON, 7 min OFF), or 50% (5 min ON, 5 min OFF). After an additional 16 hours, cells were imaged and SH2-mEmerald mean intensity were measured. Moonbody without atAFB2 was used as control.
It was then evaluated if moonbody could be utilized to conditionally fine-tune the expression levels of its binding target. The SH2-specific moonbody was fused with the auxin signalling F-box 2 protein (AFB2), a component in the Skp1-Cu1-F-Box (SCF) E3 ubiquitin ligase complex that can recruit auxin-inducible degrons for proteasomal degradation. Monobody can directly recognize its target, thus obviating the need for auxin and the fusion of the degron tag to a target protein.

For assay [2] the following is noted: aqueous solutions, purified protein; read-out: dissociation constant (Kd); cited from earlier work.
For assay [3] the following is noted: HeLa cells.
Protocol: The PM-translocation of acVHH-PB variants was used as a readout for high-content imaging. HeLa cells were seeded in a glass-bottom 96-well microplate (Cellvis, Mountain View, CA, USA) at a density of 1×10^4 cells/well and cultured in 40 μL DMEM supplemented with 10% FBS in 5% CO2 at 37° C. 12 hours later, the constructed plasmids were transfected into HeLa cells with Lipofectamine 3000. After 18 hours, the microplate was mounted on the IN Cell Analyzer 6000 (GE) high-content imaging instrument in the absence of caffeine and performed fast imaging with four captured views per well. Next, the microplate was incubated with caffeine (1 μM) for 10 min and re-imaged using the same parameters. The exported florescent images were then analyzed with an Image J PathFinder plugin for automated membrane detection and quantification. The screened top candidate mutations were further characterized by titration with increasing doses of caffeine to obtain the EC50 cures in living cells. The PM/Cytosol ratios were quantified and plotted against the dosest to obtain the apparent binding affinity. […]
Caffeine was titrated into HeLa cells expressing YFP-acVHH-PB variants (as shown in FIG. 2C) and used the PM-to-cytosol ratio of fluorescent signal as a sensitive readout.
The subject of assay [4] is mCherry (NE-tethered mCh-lamin A). The assay can be described thus: NP-to-NE translocation assay of sunbody variants. As to conditions: HeLa cells, GFP-tagged LaM8-LOV2 constructs, after photostimulation. It counts as cell-based. The protocol: as §1
The instant example screens photo-switchable nanobodies using a similar engineering approach and the NE translocation assay (see FIGS. 20A-20B). For this example, an mCherry-specific nanobody (LaM8) was used and LOV2 was inserted into flexible loop regions opposing the CDRs (see FIG. 20B and FIG. 21A), the latter of which are involved in direct antigen recognition and thus remain unperturbed.

B1: moonbody: anti-SH2 Abl monobody with LOV2 inserted at site S5 (optimized), SEQ ID NO: 1 (protein)
chain: VSSVPTKLEVVDATPTSLKISWDAYYSSWQNVKYYRITYGETGGDSPVQEFTVPGYYSTATISGLKPGSGLATTLERIEKNFVITDPRLPDNPIIFASDSFLQLTEYSREEILGRNCRFLQGPETDRATVRKIRDAIDNQTEVTVQLINYTKSGKKFWNLFHLQPMRDQKGDVQYFIGVQLDGTEHVRDAAEREGVMLIKKTAENIDEAAKELGVDYTITVYAYDTFFPGYEPNSPISINYRT
With B1, the “light-dependent moonbody-target interaction” value in assay [1] (HeLa cells, NE/NP ratio of mCh signals) is on record as “almost complete dissociation from NE”. In addition, the “repeated NE-to-NP translocation, number of dark-light cycles” value in assay [1] (reversibility) was “at least 10 dark-light cycles”. In addition, the “target protein level under pulsed light” value in the assay with SH2-mEmerald is on record as “gradual recovery of SH2-mEmerald signals”.

B2: WT: wild-type anti-caffeine single variable domain on a heavy chain (acVHH), tested as PB-tagged YFP fusion (protein)
VHH: QLVESGGGLVQAGGSLRLSCAVSGRPFSEYNLGWFRQAPGKEREFVARIRSSGTTVYTDSVKGRFSASRDNATCVVHYTGMLEDGKKFDSSRDRNKPFKFMLGKQEVIRGWEEGVAQMSVGQRAKLTISPDYAYGATGHGSGSGSGVKDLLQAWDLYYHVFRRISGPPGPGSGLWHEMWHEGLEEASRLYFGERNVKGMFEVLEPLHAMMERGPQTLKETSFNQAYGRDLMEAQEWCRKYMKSGSSGGSGSGIIPPHATLVFDVELLKLEKNMGYLQLNSLEPEDTAVYYCAMSRVDTDSPAFYDYWGQGTQVTVSTPRS
One may read the Kd as the equilibrium constant for the complex coming apart. Regarding B2, the Kd in assay [2] was 500 nM.

B3: biCOSMO-L: two COSMO copies connected by longer mixed flexible and rigid linker, SEQ ID NO: 7 (protein)
chain: EVQLQASGGGLVQAGGSLRLSCTASGRTGTIYSMAWFRQAPGKEREFLATVGWSSGITYYMDSVKGRFTISRDNAKNSAYLQMNSLKPEDTAVYYCTATRAWSVGYDYWGQGTQVTVSHAAAGAPVPYPDPLEPREQKLISEEDLGGSGGAPEVQLQASGGGLVQAGGSLRLSCTASGRTGTIYSMAWFRQAPGKEREFLATVGWSSGITYYMDSVKGRFTISRDNAKNSAYLQMNSLKPEDTAVYYCTATRAWSVGYDYWGQGTQVTVS
Consider B3, for which the “caffeine-inducible PM translocation” value in assay [3] (200 or 1000 nM caffeine) is reported as “caffeine-induced PM translocation was no longer observed”. In addition, in assay [3] (PB-tagged variants, caffeine titration), the “EC50 (caffeine sensitivity), result in words” value is listed as “Intramolecular binding”.

B4: sunbody: anti-mCherry nanobody LaM8 with LOV2 at N-terminus (S0) and S3 loop, SEQ ID NO: 2 (protein)
chain: LATTLERIEKNFVITDPRLPDNPIIFASDSFLQLTEYSREEILGRNCRFLQGPETDRATVRKIRDAIDNQTEVTVQLINYTKSGKKFWNLFHLQPMRDQKGDVQYFIGVQLDGTEHVRDAAEREGVMLIKKTAENIDEAAKELKLMAQVQLVESGGGLVQAGGSLRLSCAVSGRPFSEYNLGWFRQAPGKEREFVARIRSSGTTVYTDSVKGRFSASRDNALERIEKNFVITDPRLPDNPIIFASDSFLQLTEYSREEILGRNCRFLQGPETDRATVRKIRDAIDNQTEVTVQLINYTKSGKKFWNLFHLQPMRDQKGDVQYFIGVQLDGTEHVRDAAEREGVMLIKKTAENIDEAAKNMGYLQLNSLEPEDTAVYYCAMSRVDTDSPAFYDYWGQGTQVTVSTPRS
Turning to B4, the “light-induced change in the NE/NP ratio” value in assay [4] was “over 80%”.
